Test results published in PMC12392091.

Biological target: T1, DdaA (Ab) (Acinetobacter baumannii ATCC 17978, UniProt V5VBS3 1-335)
T1 sequence: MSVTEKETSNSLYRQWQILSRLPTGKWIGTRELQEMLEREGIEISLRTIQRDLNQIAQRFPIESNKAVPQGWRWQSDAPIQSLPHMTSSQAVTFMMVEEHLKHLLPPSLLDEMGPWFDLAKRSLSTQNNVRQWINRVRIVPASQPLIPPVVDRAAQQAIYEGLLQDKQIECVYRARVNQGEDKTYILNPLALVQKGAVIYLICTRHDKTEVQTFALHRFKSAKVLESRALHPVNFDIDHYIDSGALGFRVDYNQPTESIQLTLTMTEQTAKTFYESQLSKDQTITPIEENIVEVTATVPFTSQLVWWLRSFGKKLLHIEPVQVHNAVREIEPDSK
Assay: EMSA

B1: recA promoter WT (FAM-AR-DDRM) (dsDNA)
DNA 1: TTTCCGGTCTGGGCGACACAATATGACGTGTAATTTTAACC
DNA 2: GGTTAAAATTACACGTCATATTGTGTCGCCCAGACCGGAAA
binding result: binds
